Measurements published in publication PMC3596254.

Biological target: GFP-tagged T759A mutant DIAPH1 (murine pEGFP-mDia T751A) (murine) (UniProt O08808)
Experiment: co-IP

Sequence of UniProt O08808 (O08808 whole entry T751A): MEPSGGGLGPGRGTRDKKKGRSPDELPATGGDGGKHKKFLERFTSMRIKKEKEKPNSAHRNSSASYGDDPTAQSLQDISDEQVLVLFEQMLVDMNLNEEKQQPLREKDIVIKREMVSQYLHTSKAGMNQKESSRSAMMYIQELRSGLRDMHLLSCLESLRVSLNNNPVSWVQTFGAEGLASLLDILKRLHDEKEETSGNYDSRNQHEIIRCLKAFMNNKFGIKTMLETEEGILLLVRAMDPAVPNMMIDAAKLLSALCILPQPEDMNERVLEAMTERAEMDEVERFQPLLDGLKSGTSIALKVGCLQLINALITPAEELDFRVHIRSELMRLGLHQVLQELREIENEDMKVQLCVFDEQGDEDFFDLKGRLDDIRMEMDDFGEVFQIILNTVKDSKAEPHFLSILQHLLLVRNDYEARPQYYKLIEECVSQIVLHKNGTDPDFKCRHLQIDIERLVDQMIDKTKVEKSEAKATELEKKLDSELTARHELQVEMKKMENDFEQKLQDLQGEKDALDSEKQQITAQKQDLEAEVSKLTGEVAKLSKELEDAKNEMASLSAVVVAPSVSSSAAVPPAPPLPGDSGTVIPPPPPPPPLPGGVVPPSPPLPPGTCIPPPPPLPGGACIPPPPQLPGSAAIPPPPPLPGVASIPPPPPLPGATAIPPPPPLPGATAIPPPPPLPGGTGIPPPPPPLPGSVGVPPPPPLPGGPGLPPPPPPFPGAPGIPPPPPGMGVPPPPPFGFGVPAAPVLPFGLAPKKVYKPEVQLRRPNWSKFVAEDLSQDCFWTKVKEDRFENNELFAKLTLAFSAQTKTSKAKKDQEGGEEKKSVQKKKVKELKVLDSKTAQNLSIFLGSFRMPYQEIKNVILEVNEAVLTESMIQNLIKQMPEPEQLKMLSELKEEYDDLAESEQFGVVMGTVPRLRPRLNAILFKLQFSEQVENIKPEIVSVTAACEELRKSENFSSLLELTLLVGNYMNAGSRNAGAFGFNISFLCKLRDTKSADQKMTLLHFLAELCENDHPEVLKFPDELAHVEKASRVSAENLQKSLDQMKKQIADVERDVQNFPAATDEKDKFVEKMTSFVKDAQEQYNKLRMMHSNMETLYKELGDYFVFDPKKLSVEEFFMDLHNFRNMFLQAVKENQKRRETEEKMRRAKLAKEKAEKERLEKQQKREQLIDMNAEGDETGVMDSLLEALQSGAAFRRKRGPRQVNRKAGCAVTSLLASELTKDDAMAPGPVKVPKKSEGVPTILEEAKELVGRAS

percent decrease of the co-precipitate against wild type	Substance
65%	Kinesin heavy chain (from UniProt P33176 1-963) (natural protein)
86%	Actin, β (from UniProt P60709 1-375) (natural protein)
